Publication PMC3578099 (Journal of structural biology, 2013)
Where two headings read alike, the source gives them in different places. Square brackets hold non-standard residues; d marks the D form. Ends that are not written are not given here. pY = N[C@@H](Cc1ccc(OP(=O)(O)O)cc1)C(=O)O

How the values were obtained:
[1] = biological target: T1, SHP-1 C453S catalytic domain (residues 243–530) (human, UniProt P29350 243-530, C453S); assay: ITC
[2] = biological target: T1, SHP-1 C453S catalytic domain (residues …); assay: ITC; remark: listed apart in the source

T1 sequence (P29350 243-530 C453S): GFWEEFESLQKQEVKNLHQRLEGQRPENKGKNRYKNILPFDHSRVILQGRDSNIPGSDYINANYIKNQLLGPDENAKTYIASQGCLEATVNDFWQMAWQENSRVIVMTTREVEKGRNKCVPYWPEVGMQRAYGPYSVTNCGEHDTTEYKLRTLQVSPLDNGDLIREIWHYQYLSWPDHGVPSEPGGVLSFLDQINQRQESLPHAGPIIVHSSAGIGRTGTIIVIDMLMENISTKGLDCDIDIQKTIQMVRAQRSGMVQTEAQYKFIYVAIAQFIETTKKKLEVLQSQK

Binder	Kd [1]	Kd [2]	dH [2]	stoichiometry N [2]
ETDKE[pY]YTVKD [JAK1 activation loop phosphopeptide E1029TDKEpYYTVKD]	13.4 µM	13.7 ± 1.4 µM	-28.7 ± 7.3 kcal/mol	0.7
ETDKEY[pY]TVKD [JAK1 activation loop phosphopeptide E1029TDKEYpYTVKD]	–	5.6 ± 1.1 µM	-21.5 ± 3.5 kcal/mol	0.9
